Data reported in paper PMC9127587, “Antibody recognition of complement factor H reveals a flexible loop involved in atypical hemolytic uremic syndrome pathogenesis” (The Journal of Biological Chemistry, 2022).

B1: VHH4 (VHH)
VHH: QVQLVESGGGLVQAGGSLRLSCAASGLTVDDYAIGWFRQAPGKEREGVSCISSSNGSTYYADSVKGRFTISSDNAKNTAYLQMNSLKPEDTAVYYCAAAVSPNLECGTGPFGIYASYYGMDYWGQGTQVTVSS
notes: alpaca VHH selected by phage display; CDR3 is Ala99-Tyr122; Disulfide bond between Cys50 and Cys106; also called VHH4 WT; WT; source: E. coli BL21 (DE3), purified (Ni-NTA, SEC)
B2: VHH4 W123A (VHH)
VHH: QVQLVESGGGLVQAGGSLRLSCAASGLTVDDYAIGWFRQAPGKEREGVSCISSSNGSTYYADSVKGRFTISSDNAKNTAYLQMNSLKPEDTAVYYCAAAVSPNLECGTGPFGIYASYYGMDYAGQGTQVTVSS
B3: VHH4 Y117A (VHH)
VHH: QVQLVESGGGLVQAGGSLRLSCAASGLTVDDYAIGWFRQAPGKEREGVSCISSSNGSTYYADSVKGRFTISSDNAKNTAYLQMNSLKPEDTAVYYCAAAVSPNLECGTGPFGIYASAYGMDYWGQGTQVTVSS
B4: VHH4 L104A (VHH)
VHH: QVQLVESGGGLVQAGGSLRLSCAASGLTVDDYAIGWFRQAPGKEREGVSCISSSNGSTYYADSVKGRFTISSDNAKNTAYLQMNSLKPEDTAVYYCAAAVSPNAECGTGPFGIYASYYGMDYWGQGTQVTVSS
notes: as the VHH chain of m4 (PDB 7WKI) with the stated change; also called L104A_(VHH4); Leu104A_(VHH4); source: E. coli BL21 (DE3), purified (Ni-NTA, SEC), as the wildtype
B5: VHH4 T108A (VHH)
VHH: QVQLVESGGGLVQAGGSLRLSCAASGLTVDDYAIGWFRQAPGKEREGVSCISSSNGSTYYADSVKGRFTISSDNAKNTAYLQMNSLKPEDTAVYYCAAAVSPNLECGAGPFGIYASYYGMDYWGQGTQVTVSS
B6: VHH4 G119A (VHH)
VHH: QVQLVESGGGLVQAGGSLRLSCAASGLTVDDYAIGWFRQAPGKEREGVSCISSSNGSTYYADSVKGRFTISSDNAKNTAYLQMNSLKPEDTAVYYCAAAVSPNLECGTGPFGIYASYYAMDYWGQGTQVTVSS
B7: VHH4 D121A (VHH)
VHH: QVQLVESGGGLVQAGGSLRLSCAASGLTVDDYAIGWFRQAPGKEREGVSCISSSNGSTYYADSVKGRFTISSDNAKNTAYLQMNSLKPEDTAVYYCAAAVSPNLECGTGPFGIYASYYGMAYWGQGTQVTVSS
notes: as the VHH chain of m4 (PDB 7WKI) with the stated change; also called D121A_(VHH4); Asp121A_(VHH4); source: E. coli BL21 (DE3), purified (Ni-NTA, SEC), as the wildtype
B8: VHH4 P110A (VHH)
VHH: QVQLVESGGGLVQAGGSLRLSCAASGLTVDDYAIGWFRQAPGKEREGVSCISSSNGSTYYADSVKGRFTISSDNAKNTAYLQMNSLKPEDTAVYYCAAAVSPNLECGTGAFGIYASYYGMDYWGQGTQVTVSS
B9: VHH4 Y118A (VHH)
VHH: QVQLVESGGGLVQAGGSLRLSCAASGLTVDDYAIGWFRQAPGKEREGVSCISSSNGSTYYADSVKGRFTISSDNAKNTAYLQMNSLKPEDTAVYYCAAAVSPNLECGTGPFGIYASYAGMDYWGQGTQVTVSS
notes: as the VHH chain of m4 (PDB 7WKI) with the stated change; also called Y118A_(VHH4); Tyr118A_(VHH4); source: E. coli BL21 (DE3), purified (Ni-NTA, SEC), as the wildtype
B10: VHH4 P102A (VHH)
VHH: QVQLVESGGGLVQAGGSLRLSCAASGLTVDDYAIGWFRQAPGKEREGVSCISSSNGSTYYADSVKGRFTISSDNAKNTAYLQMNSLKPEDTAVYYCAAAVSANLECGTGPFGIYASYYGMDYWGQGTQVTVSS
B11: VHH4 Y95A (VHH)
VHH: QVQLVESGGGLVQAGGSLRLSCAASGLTVDDYAIGWFRQAPGKEREGVSCISSSNGSTYYADSVKGRFTISSDNAKNTAYLQMNSLKPEDTAVYACAAAVSPNLECGTGPFGIYASYYGMDYWGQGTQVTVSS

Columns and labels:
[1] = target: CFH18-20 (human complement factor H CCP18-20) with myc tag and His-tag (human) (UniProt P08603); experiment: ITC; CFH18-20 in the cell (5-15 uM), VHH4 or mutants in the syringe (50-150 uM), 20 injections; PBS pH 7.4, 25 °C; iTC200
[2] = target: T1, CFH18-20 (human complement factor H CCP18-20) with His-tag only (Homo sapiens, UniProt P08603); experiment: crystal structure; complex of CFH18-20 with His-tag and VHH4 mixed at 1:1.2 and purified by SEC; crystals at 20 °C in 200 mM sodium phosphate monobasic, 20% PEG 3350; 2.6 Å; conditions: both partners purified
T1 construct: complement factor H (CFH), human, domains CCP18-20; Construct for crystallization; Domain CCP18 was not observed in the crystal structure; also called CFH18-20 with His-tag; source: Expi293 cells, transfected, purified from the supernatant (Ni-NTA, SEC); not shown: His-tag, C-terminal, kept

[3] = target: CFH18-20 (human complement factor H CCP18-20) with myc tag and His-tag (human) (UniProt P08603); experiment: SPR; CFH18-20 (or W1183A) immobilised on a CM5 chip by amine coupling at around 300 RU; VHH4 or its mutants injected as analyte at 30 uL/min; single-cycle kinetics; PBS pH 7.4, Tween 20 (0.005%), 25 °C; Biacore 8K
[4] = target: CFH18-20 W1183A_(CCP20) (human) (UniProt P08603); experiment: as above
[5] = target: T2, CFH18-20 (human complement factor H CCP18-20) with myc tag and His-tag (Homo sapiens, UniProt P08603); experiment: ITC; CFH18-20 in the cell (5-15 uM), VHH4 or mutants in the syringe (50-150 uM), 20 injections; PBS pH 7.4, 25 °C; iTC200; conditions: both partners purified
T2 construct: complement factor H (CFH), human, domains CCP18-20; Construct for SPR and ITC; PDB 7WKI holds the His-only form of the same protein; also called CFH18-20 WT; CFH CCP18-20; source: Expi293 cells, transfected, purified from the supernatant (Ni-NTA, SEC); not shown: myc, C-terminal, kept; His-tag, C-terminal, kept

[6] = target: T2, CFH18-20 (human complement factor H …); experiment: SPR; CFH18-20 (or W1183A) immobilised on a CM5 chip by amine coupling at around 300 RU; VHH4 or its mutants injected as analyte at 30 uL/min; single-cycle kinetics; PBS pH 7.4, Tween 20 (0.005%), 25 °C; Biacore 8K; conditions: both partners purified

T2 sequence (P08603 1046-1231): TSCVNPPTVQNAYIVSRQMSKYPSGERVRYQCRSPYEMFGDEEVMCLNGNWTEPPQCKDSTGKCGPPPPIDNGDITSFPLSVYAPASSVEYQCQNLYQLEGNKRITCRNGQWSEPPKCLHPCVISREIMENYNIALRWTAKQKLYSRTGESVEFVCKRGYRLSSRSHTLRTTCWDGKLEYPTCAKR
Sequence of CFH18-20 (human complement factor H CCP18-20) with myc tag and His-tag (human) (P08603 1046-1231): as above
Sequence of CFH18-20 W1183A_(CCP20) (human) (P08603 1046-1231 W1183A): as the sequence (P08603 1046-1231) above, with W138A counted along it
T1 sequence (P08603 1046-1231): as the sequence (P08603 1046-1231) above

Row | Binder | Kd [1] | dH [1] | stoichiometry N [1] | binding result [2] | Kd [3] | koff [3] | kon [3] | Kd [4] | Kd [5] | dH [5] | stoichiometry N [5] | Kd [6] | koff [6] | kon [6]
1 | B1 | 2.01 nM | -28.9 kcal/mol | 0.895 | binds | 0.00171 nM | 5.53e-08 s⁻¹ | 31400 M⁻¹ s⁻¹ | > 1000 nM | – | – | – | – | – | –
2 | B2 | 3.92 nM | -20.9 kcal/mol | 0.866 | – | 5.05 nM | 0.000159 s⁻¹ | 31200 M⁻¹ s⁻¹ | – | – | – | – | – | – | –
3 | B3 | 5.87 nM | -28.1 kcal/mol | 0.933 | – | 0.498 nM | 5.39e-07 s⁻¹ | 11300 M⁻¹ s⁻¹ | – | – | – | – | – | – | –
4 | B4 | – | – | – | – | – | – | – | – | 166 ± 40.3 nM | -24.5 ± 0.99 kcal/mol | 0.947 ± 0.061 | 44.1 ± 2.3 nM | 0.000489 s⁻¹ | 11200 M⁻¹ s⁻¹
5 | B5 | 8.79 nM | -27.2 kcal/mol | 0.924 | – | 0.146 nM | 2.57e-06 s⁻¹ | 17900 M⁻¹ s⁻¹ | – | – | – | – | – | – | –
6 | B6 | 7.26 nM | -19.4 kcal/mol | 0.865 | – | 9.18 nM | 0.000611 s⁻¹ | 62800 M⁻¹ s⁻¹ | – | – | – | – | – | – | –
7 | B7 | – | – | – | – | – | – | – | – | 361 ± 64.9 nM | -29.5 ± 1.14 kcal/mol | 1 ± 0.019 | 127 ± 30 nM | 0.000545 s⁻¹ | 4340 M⁻¹ s⁻¹
8 | B8 | 5.03 nM | -29.8 kcal/mol | 0.838 | – | 0.504 nM | 7.11e-06 s⁻¹ | 9210 M⁻¹ s⁻¹ | – | – | – | – | – | – | –
9 | B9 | – | – | – | – | – | – | – | – | 410 ± 26.4 nM | -19.4 ± 0.33 kcal/mol | 0.947 ± 0.041 | 2200 ± 732 nM | 0.0298 s⁻¹ | 15800 M⁻¹ s⁻¹
10 | B10 | 4.11 nM | -29.6 kcal/mol | 0.961 | – | 0.219 nM | 4.07e-06 s⁻¹ | 23700 M⁻¹ s⁻¹ | – | – | – | – | – | – | –
11 | B11 | 2.27 nM | -28.2 kcal/mol | 0.842 | – | 0.166 nM | 4.42e-06 s⁻¹ | 30400 M⁻¹ s⁻¹ | – | – | – | – | – | – | –
